Assays:
hLTBP1-proTGFβ1 [1] = biological target: T1, hLTBP1-proTGFβ1 (human, UniProt Q14766 347-1721; P01137 30-390, limits assumed); assay: SPR (Biacore), Fab
T1 construct: Large latent complex (LLC): proTGFβ1 dimer disulfide-linked to one presenting molecule; recombinant, purified, biotinylated in BLI/SPR; The same id is used for the complex made by transfected cells in the reporter assays; also called human LTBP1-proTGFβ1 complex; LTBP1-ProTGFb1
Experimental: (§1) Surface plasmon resonance (SPR) was used to measure binding kinetics using a BIACORE® system. […] Experiments were carried out with eight types of LLCs, namely, hLTBP1-proTGFβ1, mLTBP1-proTGFβ1, hLTBP3-proTGFβ1, mLTBP3-proTGFβ1, hGARP-proTGFβ1, mGARP-proTGFβ1, hLRRC33-proTGFβ1 and mLRRC33-proTGFβ1.
(§2) In vitro binding kinetics (on/off rates) were measured in Biacore-based assays and affinities were determined against all four known LLCs using both human and murine counterparts for each. Based on the association rate and dissociation rate, KD was calculated for each. In addition, relative affinities, as compared to the reference antibody as a benchmark, were calculated and expressed as “fold difference” relative to the reference antibody.
(§3) A BIACORE® system was employed to determine the monovalent binding affinity and the kinetic parameters for antigen binding of test antibodies. The binding kinetics were evaluated by surface plasmon resonance using Biacore 8K (GE Healthcare). A Biotin CAP sensor chip was used to capture the biotinylated antigens. […] Multi-cycle kinetics was employed where each analyte concentration was injected in a separate cycle and the sensor chip surface was regenerated after each cycle. All the assays were carried out in freshly prepared 1×HBS-EP+buffer (10 mM HEPES, 150 mM NaCl, 3 mM EDTA, 0.05% Tween20, pH 7.4). Data for all the analyte concentrations for each interaction were fit globally to a 1:1 binding model to obtain the kinetic parameters. The Sensorgram for 0 nM analyte concentration was used as reference.

hGARP-proTGFβ1 [2] = biological target: T2, hGARP-proTGFβ1 (human, UniProt Q14392 18-627; P01137 30-390, limits assumed); assay: SPR (Biacore), Fab
T2 construct: LLC as m1; Same id used for the cell-surface complex in reporter assays; also called human GARP-proTGFβ1 complex; GARP-ProTGFb1
Experimental: as §1, §2, §3

mLTBP1-proTGFβ1 [3] = biological target: T3, mLTBP1-proTGFβ1 (mouse); assay: SPR (Biacore), Fab
T3 construct: Murine LLC; also called murine LTBP1-proTGFβ1 complex
Experimental: as §1, §2, §3

mLTBP3-proTGFβ1 [4] = biological target: T4, mLTBP3-proTGFβ1 (mouse); assay: SPR (Biacore), Fab
T4 construct: Murine LLC; also called murine LTBP3-proTGFβ1 complex
Experimental: as §1, §2, §3

mGARP-proTGFβ1 = biological target: T5, mGARP-proTGFβ1 (mouse); assay: SPR (Biacore), Fab
T5 construct: Murine LLC; also called murine GARP-proTGFβ1 complex
Experimental: as §1, §2, §3

[5] = biological target: endogenous LTBP-proTGFβ1 of human LN229 cells (human, UniProt P01137 30-390); assay: cell-based or functional assay
hLTBP1-proTGFβ1 [6] = biological target: T1, hLTBP1-proTGFβ1; assay: SPR (Biacore), Fab; affinity relative to Ref
Experimental: as §1, §2, §3

hLTBP3-proTGFβ1 [7] = biological target: T6, hLTBP3-proTGFβ1 (human, UniProt Q9NS15 44-1303; P01137 30-390, limits assumed); assay: SPR (Biacore), Fab; affinity relative to Ref
T6 construct: LLC as m1; Same id used for the cell-made complex in reporter assays; also called human LTBP3-proTGFβ1 complex; LTBP3-ProTGFb1
Experimental: as §1, §2, §3

hGARP-proTGFβ1 [8] = biological target: T2, hGARP-proTGFβ1; assay: SPR (Biacore), Fab; affinity relative to Ref
Experimental: as §1, §2, §3

mLTBP1-proTGFβ1 [9] = biological target: T3, mLTBP1-proTGFβ1; assay: SPR (Biacore), Fab; affinity relative to Ref
Experimental: as §1, §2, §3

mLTBP3-proTGFβ1 [10] = biological target: T4, mLTBP3-proTGFβ1; assay: SPR (Biacore), Fab; affinity relative to Ref
Experimental: as §1, §2, §3

hLTBP1-proTGFβ1 [11] = biological target: T1, hLTBP1-proTGFβ1; assay: SPR (Biacore 8K), biotinylated antigen captured, Fab as analyte
Experimental: as §3
(§4) The binding kinetics of antibody interactions with each of the antigen complexes, human LTBP1-ProTGFb1, human LTBP3-ProTGFb1, human GARP-ProTGFb1, and human LRRC33-ProTGFb1, were evaluated by surface plasmon resonance. Binding kinetics was evaluated by surface plasmon resonance using a BIACORE® 8K (GE) instrument. Biotinylated antigens were captured on a Biotin CAP chip and the Fab fragments of the antibodies were used as analytes. Sensorgrams for Fab binding at variable concentrations (0.6-10 nM) were globally fit to obtain the kinetic parameters.
(§5) Binding kinetics for the Fabs were evaluated against each of the four human antigens, LTBP1-ProTGFb1, LTBP3-ProTGFb1, GARP-ProTGFb1, and LRRC33-ProTGFb1. […] These experiments were repeated.

hLTBP3-proTGFβ1 [12] = biological target: T6, hLTBP3-proTGFβ1; assay: as above
Experimental: as §3, §4, §5

hGARP-proTGFβ1 [13] = biological target: T2, hGARP-proTGFβ1; assay: as above
Experimental: as §3, §4, §5

hLRRC33-proTGFβ1 = biological target: T7, hLRRC33-proTGFβ1 (human, UniProt Q86YC3 19-650; P01137 30-390, limits assumed); assay: as above
T7 construct: LLC as m1; Same id used for the cell-surface complex in reporter assays; also called human LRRC33-proTGFβ1 complex; LRRC33-ProTGFb1
Experimental: as §3, §4, §5

T4 sequence (Q61810 39-1253, chain 1 of 2): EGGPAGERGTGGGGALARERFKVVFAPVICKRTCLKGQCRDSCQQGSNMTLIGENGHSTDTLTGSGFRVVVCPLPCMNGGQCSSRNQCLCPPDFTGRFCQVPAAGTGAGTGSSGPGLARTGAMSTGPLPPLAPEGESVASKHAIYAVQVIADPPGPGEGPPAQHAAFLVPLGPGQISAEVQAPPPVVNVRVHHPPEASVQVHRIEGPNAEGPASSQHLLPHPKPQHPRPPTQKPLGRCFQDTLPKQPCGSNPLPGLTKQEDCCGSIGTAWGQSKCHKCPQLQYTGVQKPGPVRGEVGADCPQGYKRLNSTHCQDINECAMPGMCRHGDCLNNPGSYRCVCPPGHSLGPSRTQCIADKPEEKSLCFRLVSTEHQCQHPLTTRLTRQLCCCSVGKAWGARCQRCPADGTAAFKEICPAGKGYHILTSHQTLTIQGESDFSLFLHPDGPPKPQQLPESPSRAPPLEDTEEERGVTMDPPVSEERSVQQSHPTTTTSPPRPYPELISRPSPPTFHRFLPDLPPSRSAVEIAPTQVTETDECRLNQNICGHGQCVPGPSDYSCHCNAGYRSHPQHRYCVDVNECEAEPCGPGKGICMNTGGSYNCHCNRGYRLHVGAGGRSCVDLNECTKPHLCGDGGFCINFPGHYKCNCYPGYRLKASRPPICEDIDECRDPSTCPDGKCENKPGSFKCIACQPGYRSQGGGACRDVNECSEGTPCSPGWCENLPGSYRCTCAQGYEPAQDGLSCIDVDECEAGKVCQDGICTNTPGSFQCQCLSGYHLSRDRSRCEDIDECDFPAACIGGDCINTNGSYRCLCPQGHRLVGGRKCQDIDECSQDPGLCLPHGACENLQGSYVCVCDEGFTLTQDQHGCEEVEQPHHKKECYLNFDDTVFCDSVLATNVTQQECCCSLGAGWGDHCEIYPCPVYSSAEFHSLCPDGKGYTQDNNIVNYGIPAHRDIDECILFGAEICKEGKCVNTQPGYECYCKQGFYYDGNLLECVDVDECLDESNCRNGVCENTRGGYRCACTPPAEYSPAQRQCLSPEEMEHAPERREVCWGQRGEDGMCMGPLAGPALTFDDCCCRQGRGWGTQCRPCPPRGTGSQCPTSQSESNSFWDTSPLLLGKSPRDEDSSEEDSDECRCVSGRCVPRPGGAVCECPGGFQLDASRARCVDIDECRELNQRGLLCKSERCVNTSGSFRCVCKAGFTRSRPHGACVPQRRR
T4 sequence (P04202 30-390, chain 2 of 2, further chain): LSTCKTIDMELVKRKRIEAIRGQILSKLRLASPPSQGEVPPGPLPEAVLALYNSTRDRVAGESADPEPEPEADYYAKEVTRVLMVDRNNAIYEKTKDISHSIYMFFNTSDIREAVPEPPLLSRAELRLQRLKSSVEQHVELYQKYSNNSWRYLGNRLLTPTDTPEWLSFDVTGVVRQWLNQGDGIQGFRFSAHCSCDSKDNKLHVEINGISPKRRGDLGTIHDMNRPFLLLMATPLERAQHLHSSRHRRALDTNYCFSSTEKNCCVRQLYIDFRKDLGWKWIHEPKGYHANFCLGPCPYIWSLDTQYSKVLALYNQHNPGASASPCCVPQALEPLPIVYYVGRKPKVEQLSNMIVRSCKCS
T6 sequence (Q9NS15 44-1303 limits assumed, chain 1 of 2): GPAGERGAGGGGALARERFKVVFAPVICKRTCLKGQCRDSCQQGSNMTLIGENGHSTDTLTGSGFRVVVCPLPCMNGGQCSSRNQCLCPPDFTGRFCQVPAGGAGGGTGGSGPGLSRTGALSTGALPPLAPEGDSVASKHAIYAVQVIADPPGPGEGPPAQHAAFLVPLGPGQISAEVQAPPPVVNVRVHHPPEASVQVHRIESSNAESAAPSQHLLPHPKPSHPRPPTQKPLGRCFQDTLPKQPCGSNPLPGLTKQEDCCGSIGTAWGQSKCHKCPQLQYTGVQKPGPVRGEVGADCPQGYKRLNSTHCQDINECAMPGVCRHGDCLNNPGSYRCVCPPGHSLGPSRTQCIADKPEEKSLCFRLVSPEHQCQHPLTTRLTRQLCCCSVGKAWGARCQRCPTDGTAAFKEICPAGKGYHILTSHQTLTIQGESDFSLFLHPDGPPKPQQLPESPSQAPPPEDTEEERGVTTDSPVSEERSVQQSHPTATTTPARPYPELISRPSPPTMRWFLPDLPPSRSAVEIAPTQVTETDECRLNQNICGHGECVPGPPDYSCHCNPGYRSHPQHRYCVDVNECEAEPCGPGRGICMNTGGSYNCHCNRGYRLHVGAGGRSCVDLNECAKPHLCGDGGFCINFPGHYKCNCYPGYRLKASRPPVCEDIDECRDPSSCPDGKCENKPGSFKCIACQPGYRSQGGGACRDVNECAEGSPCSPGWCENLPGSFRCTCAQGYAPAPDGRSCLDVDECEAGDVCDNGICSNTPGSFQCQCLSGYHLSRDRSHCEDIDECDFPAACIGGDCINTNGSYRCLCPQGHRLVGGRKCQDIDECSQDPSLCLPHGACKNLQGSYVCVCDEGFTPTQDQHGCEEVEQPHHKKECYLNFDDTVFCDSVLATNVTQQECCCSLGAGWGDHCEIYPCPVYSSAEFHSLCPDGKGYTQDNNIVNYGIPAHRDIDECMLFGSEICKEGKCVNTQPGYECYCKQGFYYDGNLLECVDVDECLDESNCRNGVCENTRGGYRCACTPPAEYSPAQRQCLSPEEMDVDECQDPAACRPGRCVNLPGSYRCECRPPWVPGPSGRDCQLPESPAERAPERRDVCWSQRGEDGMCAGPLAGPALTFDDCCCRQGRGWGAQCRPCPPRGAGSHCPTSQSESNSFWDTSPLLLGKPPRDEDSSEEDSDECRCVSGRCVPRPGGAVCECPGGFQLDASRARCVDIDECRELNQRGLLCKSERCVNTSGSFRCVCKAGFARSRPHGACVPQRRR
T6 sequence (P01137 30-390 limits assumed, chain 2 of 2): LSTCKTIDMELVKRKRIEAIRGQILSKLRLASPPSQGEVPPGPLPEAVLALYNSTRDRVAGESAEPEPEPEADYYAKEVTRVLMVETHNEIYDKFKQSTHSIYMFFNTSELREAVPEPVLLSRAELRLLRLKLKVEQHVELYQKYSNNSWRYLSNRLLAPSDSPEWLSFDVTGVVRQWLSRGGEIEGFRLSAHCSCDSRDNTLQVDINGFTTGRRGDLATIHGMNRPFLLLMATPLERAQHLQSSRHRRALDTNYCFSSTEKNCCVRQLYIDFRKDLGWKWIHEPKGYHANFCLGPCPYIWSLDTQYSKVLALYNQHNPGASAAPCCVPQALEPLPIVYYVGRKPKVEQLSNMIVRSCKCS
T5 sequence (G3XA59 18-663, chain 1 of 2): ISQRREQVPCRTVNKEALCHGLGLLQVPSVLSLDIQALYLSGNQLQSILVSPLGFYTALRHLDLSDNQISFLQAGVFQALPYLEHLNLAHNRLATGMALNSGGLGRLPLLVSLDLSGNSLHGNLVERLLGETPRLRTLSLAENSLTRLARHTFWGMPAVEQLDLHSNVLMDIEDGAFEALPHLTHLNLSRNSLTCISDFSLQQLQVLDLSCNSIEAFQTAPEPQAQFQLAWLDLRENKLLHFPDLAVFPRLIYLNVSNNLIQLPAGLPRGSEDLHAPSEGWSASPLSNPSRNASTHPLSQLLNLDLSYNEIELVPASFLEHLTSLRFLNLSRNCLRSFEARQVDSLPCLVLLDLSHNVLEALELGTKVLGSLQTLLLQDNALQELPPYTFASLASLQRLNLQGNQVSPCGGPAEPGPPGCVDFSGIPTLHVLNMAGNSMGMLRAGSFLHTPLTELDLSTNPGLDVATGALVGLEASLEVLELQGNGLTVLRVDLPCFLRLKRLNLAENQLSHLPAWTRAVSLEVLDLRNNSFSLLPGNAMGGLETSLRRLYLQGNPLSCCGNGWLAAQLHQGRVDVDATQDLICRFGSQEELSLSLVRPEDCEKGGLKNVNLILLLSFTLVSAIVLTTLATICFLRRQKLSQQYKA
T5 sequence (P04202 30-390, chain 2 of 2, further chain): as the sequence (P04202 30-390, chain 2 of 2, further chain) above
T2 sequence (Q14392 18-627 limits assumed, chain 1 of 2): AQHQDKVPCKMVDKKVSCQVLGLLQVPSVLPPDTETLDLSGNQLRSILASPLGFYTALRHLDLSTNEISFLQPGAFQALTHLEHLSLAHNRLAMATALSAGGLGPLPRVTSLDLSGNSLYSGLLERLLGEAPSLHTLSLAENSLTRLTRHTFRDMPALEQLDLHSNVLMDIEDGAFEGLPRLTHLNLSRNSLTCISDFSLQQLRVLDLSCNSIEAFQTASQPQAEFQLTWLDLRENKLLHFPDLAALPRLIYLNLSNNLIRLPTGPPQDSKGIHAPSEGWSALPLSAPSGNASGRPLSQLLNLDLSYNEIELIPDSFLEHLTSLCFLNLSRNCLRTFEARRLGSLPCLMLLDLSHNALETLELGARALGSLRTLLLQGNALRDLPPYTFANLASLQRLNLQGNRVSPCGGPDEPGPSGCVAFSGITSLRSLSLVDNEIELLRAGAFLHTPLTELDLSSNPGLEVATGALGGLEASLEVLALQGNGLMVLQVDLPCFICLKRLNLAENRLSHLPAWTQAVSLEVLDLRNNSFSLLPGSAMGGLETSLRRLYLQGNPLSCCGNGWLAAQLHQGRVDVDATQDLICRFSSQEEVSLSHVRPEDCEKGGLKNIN
T2 sequence (P01137 30-390 limits assumed, chain 2 of 2): as the sequence (P01137 30-390 limits assumed, chain 2 of 2) above
endogenous LTBP-proTGFβ1 of human LN229 cells, sequence (P01137 30-390): as the sequence (P01137 30-390 limits assumed, chain 2 of 2) above

Kd (hLTBP1-proTGFβ1 [1]): 0.0502 nM | koff (hLTBP1-proTGFβ1 [1]): 8.81e-05 s⁻¹ | kon (hLTBP1-proTGFβ1 [1]): 1.75e+06 M⁻¹ s⁻¹ | Kd (hGARP-proTGFβ1 [2]): 0.23 nM | koff (hGARP-proTGFβ1 [2]): 0.000222 s⁻¹ | kon (hGARP-proTGFβ1 [2]): 965000 M⁻¹ s⁻¹ | Kd (mLTBP1-proTGFβ1 [3]): 0.0534 nM | koff (mLTBP1-proTGFβ1 [3]): 9.87e-05 s⁻¹ | kon (mLTBP1-proTGFβ1 [3]): 1.85e+06 M⁻¹ s⁻¹ | Kd (mLTBP3-proTGFβ1 [4]): 0.0956 nM | koff (mLTBP3-proTGFβ1 [4]): 0.000115 s⁻¹ | kon (mLTBP3-proTGFβ1 [4]): 1.2e+06 M⁻¹ s⁻¹ | Kd (mGARP-proTGFβ1): 0.274 nM | koff (mGARP-proTGFβ1): 0.000278 s⁻¹ | kon (mGARP-proTGFβ1): 1.02e+06 M⁻¹ s⁻¹ | fAb IC50 [5]: 0.723 nM | Fold difference (hLTBP1-proTGFβ1 [6]): 134 fold | Fold difference (hLTBP3-proTGFβ1 [7]): 72 fold | Fold difference (hGARP-proTGFβ1 [8]): 53 fold | Fold difference (mLTBP1-proTGFβ1 [9]): 123 fold | Fold difference (mLTBP3-proTGFβ1 [10]): 91 fold | Kd (hLTBP1-proTGFβ1 [11]): 0.035 nM | koff (hLTBP1-proTGFβ1 [11]): 8.52e-05 s⁻¹ | kon (hLTBP1-proTGFβ1 [11]): 2.44e+06 M⁻¹ s⁻¹ | Kd (hLTBP3-proTGFβ1 [12]): 0.109 nM | koff (hLTBP3-proTGFβ1 [12]): 0.000195 s⁻¹ | kon (hLTBP3-proTGFβ1 [12]): 1.78e+06 M⁻¹ s⁻¹ | Kd (hGARP-proTGFβ1 [13]): 0.19 nM | koff (hGARP-proTGFβ1 [13]): 0.000359 s⁻¹ | kon (hGARP-proTGFβ1 [13]): 1.89e+06 M⁻¹ s⁻¹ | Kd (hLRRC33-proTGFβ1): 0.119 nM | koff (hLRRC33-proTGFβ1): 0.000162 s⁻¹ | kon (hLRRC33-proTGFβ1): 1.36e+06 M⁻¹ s⁻¹
B1: Ab46 Fab (Fab, V domains shown)
VH: EVQLLESGGGLVQPGGSLRLSCAASGFTFADYAMTWVRQAPGKGLEWVSAISGSGAATYFADSVKGRFTISRDNSKNTLYLQMNSLRAEDTAVYYCARVSSGHWDYDYWGQGTLVTVSS
VL: DIQLTQSPSSLSASVGDRVTITCRASQSISSYLNWYQQKPGKAPKLLIYAASGLESGVPSRFSGSGSGTDFTLTISSLQPEDFATYYCQQTYGVPLTFGGGTKVEIK
notes: Fab fragment
